Residue numbers refer to the chain shown, from its start.
B1: unnamed (protein)
chain: NPYARGPNPTAASLEASAGPFTVRSFTVSRPSGYGAGTVYYPTNAGGTVGAIAIVPGYTARQSSIKWWGPRLASHGFVVITIDTNSTLDQPSSRSSQQMAALRQVASLNGTSSSPIYGKVDTARMGVMGWSMGGGGSLISAANNPSLKAAAPQAPWDSSTNFSSVTVPTLIFACENDSIAPVNSSALPIYDSMSRNAKQFLEINGGSHFCANSGNSNQALIGKKGVAWMKRFMDNDTRYSTFACENPNSTRVSDFRTANCS
B2: unnamed (protein)
chain: B1 chain with W130H, F209S
B3: unnamed (protein)
chain: B1 chain with Q153L, F209S
B4: unnamed (protein)
chain: B1 chain with R94A, F209S
B5: unnamed (protein)
chain: B1 chain with M132A, F209S
B6: unnamed (protein)
chain: B1 chain with C174A, F209S
B7: unnamed (protein)
chain: B1 chain with I179A, F209S
B8: unnamed (protein)
chain: B1 chain with S185H, F209S
B9: unnamed (protein)
chain: MNFPRASRLMQAAVLGGLMAVSAAATAQTNPYARGPNPTAASLEASAGPFTVRSFTVSRPSGYGAGTVYYPTNAGGTVGAIAIVPGYTARQSSIKWWGPRLASHGFVVITIDTNSTLDQPSSRSSQQMAALRQVASLNGTSSSPIYGKVDTARMGVMGWSMGGGGSLISAANNPSLKAAAPQAPWDSSTNFSSVTVPTLIFACENDSIAPVNSSALPIYDSMSRNAKQFLEINGGSASCANSGNSNQALIGKKGVAWMKRFMDNDTRYSTFACENPNSTRVSDFRTANCS
B10: unnamed (protein)
chain: B1 chain with S131A, F209S
B11: unnamed (protein)
chain: B1 chain with W130A, F209S
B12: unnamed (protein)
chain: B1 chain with D177A, F209S

Assays:
[1] = substrate: PET; experiment: Proxy for plastic degradation [Released monomer concentration (HPLC/LC-MS) (TPA)]; conditions: pH 9; part of the chain shown
[2] = substrate: PET; experiment: Proxy for plastic degradation [Released monomer concentration (HPLC/LC-MS) (MHET)]; conditions: pH 9
[3] = substrate: BHET; experiment: Proxy for plastic degradation [Released monomer concentration (HPLC/LC-MS) (MHET+TPA)]; conditions: pH 7.5

Row | Protein | Proxy for plastic degradation [3] [µM] | further results
1 | B1 | – | Proxy for plastic degradation [1]: 3.5 nM; Proxy for plastic degradation ([2]; part of the chain shown): 4 nM; Proxy for plastic degradation ([3]; part of the chain shown): 1.6 µM
2 | B2 | – | Proxy for plastic degradation [1]: 20 nM; Proxy for plastic degradation ([2]; part of the chain shown): 20 nM; Proxy for plastic degradation ([3]; part of the chain shown): 1.94 µM
3 | B3 | 1.26 | Proxy for plastic degradation [2]: 8 nM
4 | B4 | 0.6 | Proxy for plastic degradation [2]: 1 nM
5 | B5 | 0.57 | –
6 | B6 | 0.26 | –
7 | B7 | 0.54 | –
8 | B8 | 0.45 | –
9 | B9 | 0.03 | –
10 | B10 | 0.06 | –
11 | B11 | 0.23 | –
12 | B12 | 0.03 | –
